Measured values taken from PMC3866869.

Columns and labels:
Experiment in all cases: crystal structure; hanging drop; protein in 25 mM HEPES pH 7.5, 150 mM NaCl, 5% glycerol with 5 mM glutamate or 1 mM KA, mixed 1:1 with reservoir (19-27% PEG 4000, 0-9% propan-2-ol, 80 mM sodium acetate); data collected at 100 K; LBD dimer, one (I222) or two (P212121) dimers in the asymmetric unit
[1] = biological target: GluK2 K531A-T779G ligand-binding domain (rat) (UniProt P42260)
[2] = biological target: GluK2 R775A ligand-binding domain (rat) (UniProt P42260)
[3] = biological target: GluK2 K531A ligand-binding domain (rat) (UniProt P42260)

“GluK2 K531A-T779G ligand-binding domain (from UniProt P42260 32-544; P42260 667-908) (domain or fragment)” was tested, and the stoichiometry N [1] was 2.
With “GluK2 R775A ligand-binding domain (from UniProt P42260 32-544; P42260 667-908) (domain or fragment)” the stoichiometry N [2] was 2.
Work on “GluK2 K531A ligand-binding domain (from UniProt P42260 32-544; P42260 667-908) (domain or fragment)” yielded a stoichiometry N [3] of 2.
